Experimental findings from patent US20220242936A1 (CHANGCHUN GENESCIENCE PHARMACEUTICAL, published 2022) are described below.

Where no end group is shown, it is not given here.

Experiment [1] deals with T1, Aβ1-42 polypeptide (human).
T1 construct: Synthetic peptide; also called Aβ1-42 monomer; Aβ monomer
The experiment is described as follows: ELISA EC50 on Aβ42 monomer, 2 ml transient transfection; table note: '-' means no combination; expression 5.42 mg/L. For orientation: An ELISA detects its analyte on a solid surface through an enzyme-linked reagent.

Experiment [2] deals with T1, Aβ1-42 polypeptide. The experiment is described as follows: ELISA EC50 on Aβ42 monomer, 2 ml transient transfection; table note: '-' means no combination; expression 3.68 mg/L.
In experiment [3] the target is T1, Aβ1-42 polypeptide. Nature of the experiment: ELISA EC50 on Aβ42 monomer, 2 ml transient transfection; table note: '-' means no combination; expression 3.88 mg/L.
For experiment [4], the target named is T2, biotinylated Aβ1-42 polypeptide (human, biotinylated (site not stated)).
T2 construct: also called Full length Aβ1-42
The experiment is described as follows: ELISA, hybridoma supernatant on biotinylated peptide captured by streptavidin. The method, then: (§1) Detection: After stopping the reaction, the microtiter plate was immediately placed into a microplate reader, the OD value was measured at 450 nm, and the original data was stored.
(§2) Data processing: The raw data were input into the software SoftMax Pro 6.2.1 for data processing.

Experiment [5] addresses T3, biotinylated Aβ14-29 polypeptide (biotinylated (site not stated)).
T3 construct: also called Aβ14-29 (middle peptide fragment)
The description is as above. The protocol: as §1, §2

Experiment [6] deals with T4, biotinylated Aβ1-16 polypeptide (also: biotinylated (site not given here)).
T4 construct: also called Aβ1-16 (N-terminal peptide fragment)
T4 peptide: DAEFRHDSGYEVHHQK
The experiment is described as above. The protocol: as §1, §2

Experiment [7] addresses T1, Aβ1-42 polypeptide. The experiment is described as follows: SPR, Biacore T200, antibody captured on Protein A chip, human Aβ antigen as analyte. The method, then:
Biacore-T200 detection was performed, ProteinA chip was used to capture candidate antibodies or positive antibodies, different concentrations of human Aβ antigen were used to flow through the chip, and the fitting analysis was performed based on the collected data. […] The detection conditions were: capture time: 30 s; antigen binding time: 120 s; dissociation time: 900 s; flow rate: 30 μl/min. And the regeneration conditions were: 20 mM NaOH solution, flow rate: 30 μl/min.
For orientation: Surface plasmon resonance follows binding to a sensor surface in real time, without labels.

Experiment [8] deals with T1, Aβ1-42 polypeptide. The experiment is described as follows: cell-based or functional assay.
For experiment [9], the target named is T1, Aβ1-42 polypeptide. Nature of the experiment: ELISA EC50 on Aβ42 monomer, 2 ml transient transfection; table note: '-' means no combination; expression 3.96 mg/L.

T1 sequence (peptide, as listed by the source): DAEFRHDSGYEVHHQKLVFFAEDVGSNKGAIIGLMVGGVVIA
T2 sequence (peptide, as listed by the source): as above

B1: 066-4.26.14H3L1 (antibody, human IgG1, kappa, V domains shown)
VH: EVQLVQSGAEVKKPGESLKISCKGSGYSFRSYAMSWVRQMPGKGLEWVASISTTSNTYYPDSVKGRVTTSRDKSISTAYLQWSSLKASDTAMYYCGRGVITNQAWFAYWGQGTLVTVSS
VL: DIVLTQSPATLSVSPGERVTLSCRASQSISNNLHWYQQKSGQAPRLLIKYASQSISGIPSRFSGSGSGTDFTLTISSLQSEDFAVYFCQQSNSWPLTFGGGTQVEIKR
notes: Humanized full-length antibody; human IgG1 heavy constant and human kappa light constant (vectors pGS003-hIgG1CH, pGS003-hIgKCL)
Turning to B1, the binding result with Aβ1-42 polypeptide [1] was “no binding”.

B2: 066-4.26.14H3L5 (antibody, human IgG1, kappa, V domains shown)
VH: EVQLVQSGAEVKKPGESLKISCKGSGYSFRSYAMSWVRQMPGKGLEWVASISTTSNTYYPDSVKGRVTTSRDKSISTAYLQWSSLKASDTAMYYCGRGVITNQAWFAYWGQGTLVTVSS
VL: EIVLTQSPDFQSVTPKEKVTITCRASQSISNNLHWYQQKPDQSPKLLIKYASQSISGVPSRFSGSGSGTDFTLTINSLEAEDAATYYCQQSNSWPLTFGQGTKVEIKR
notes: as for B1
Turning to B2, in the experiment with Aβ1-42 polypeptide [2], the binding result was “no binding”.

B3: 066-4.26.14H3L4 (antibody, human IgG1, kappa, V domains shown)
VH: EVQLVQSGAEVKKPGESLKISCKGSGYSFRSYAMSWVRQMPGKGLEWVASISTTSNTYYPDSVKGRVTTSRDKSISTAYLQWSSLKASDTAMYYCGRGVITNQAWFAYWGQGTLVTVSS
VL: EIVLTQSPGTLSLSPGERATLSCRASQSISNNLHWYQQKPGQAPRLLIKYASQSISGIPDRFSGSGSGTDFTLTISRLEPEDFAVYYCQQSNSWPLTFGGGTKVEIKR
notes: as for B1
With B3, the binding result in the experiment with Aβ1-42 polypeptide [3] is listed as “no binding”.

B4: 066-7.17.2 (antibody, V domains shown)
VH: EVQLVESGGGLVKPGGSLKLSCAASGFTFSSYGMHWVRQAPEKGLEWVAMIWYDGTKKYYSDSVKGRFTISRDNAKNTLFLQMTSLRSEDTAMYYCARDRGIGTRHGPYFMDVWGQGTSVTVSS
VL: DIQMNQSPSSLSASLGDTITITCHARHNVRSYLNWYQQKPGNIPKLLIYAASSQQRGVPSRFSGSGSGTGFTLTISSLQPEDIATYYCLQSFGTPLTFGGGTKLEIK
Turning to B4, the results for the “OD value at 450 nm” value in experiment [4], in [5] and in [6] were 1.08 OD, 0.0612 OD and 0.92 OD, respectively.

B5: 066-4.26.14 mouse-human chimeric antibody (antibody, human IgG1, V domains shown)
VH: EVKLVESGGGLVKPGGSLKLSCAASGFTFRSYAMSWVRQTPEKRLEWVASISTTSNTYYPDSVKGRFTTSRDNARNIVYLQMSSLRSDDTAMYYCGRGVITNQAWFAYWGQGTLVTVSA
VL: DIVLTQSPATLSVTPGDSVSLSCRASQSISNNLHWYQQKSHESPRLLIKYASQSISGIPSRFSGSGSGTDFTLSVNNVGTEDFGMYFCQQSNSWPLTFGAGTKLELKR
As usually defined, the Kd is the concentration at which binding is half-saturated. A lower Kd goes with a tighter complex. As a reminder, the koff is the first-order rate constant of dissociation. Higher therefore signals a short-lived complex. As a reminder, the kon is the second-order rate constant of association. B5: in the experiment with Aβ1-42 polypeptide [7], binding was put at a Kd of 12.6 nM, the koff came to 0.000333 s⁻¹ and the kon was found to be 26500 M⁻¹ s⁻¹. In the experiment with Aβ1-42 polypeptide [8], the “relative fluorescence intensity (ThT, Aβ polymerization; hIgG = 1.00)” value (“relative fluorescence intensity” below) was 0.71 relative to hIgG and the “relative value of LDH release (SHSY5Y cells with Aβ; hIgG = 1.00)” value (shortened to “relative value of LDH release”) was 1.32 relative to hIgG.

B6: 066-4.26.14H5L1 (antibody, human IgG1, V domains shown)
VH: EVQLVESGGGLVQPGGSLRLSCVASGFTFRSYAMSWVRQAPGKGLEWVASISTTSNTYYPDSVKGRFTTSRDNSKNTVYLQMSSLRAEDTAVYYCGRGVITNQAWFAYWGQGTLVTVSS
VL: DIVLTQSPATLSVSPGERVTLSCRASQSISNNLHWYQQKSGQAPRLLIKYASQSISGIPSRFSGSGSGTDFTLTISSLQSEDFAVYFCQQSNSWPLTFGGGTQVEIKR
notes: as for B1
In the experiment with Aβ1-42 polypeptide [7], B6 yielded a Kd of 24.8 nM, an off-rate (koff) of 0.000469 s⁻¹ and a kon of 18900 M⁻¹ s⁻¹. Moreover, in the experiment with Aβ1-42 polypeptide [8], the “relative fluorescence intensity” value is 0.68 relative to hIgG and the “relative value of LDH release” value was 1.37 relative to hIgG.

B7: 066-4.26.14H2L2 (antibody, human IgG1, V domains shown)
VH: EVQLVESGGGLVKPGGSLRLSCAASGFTFRSYAMSWVRQTPEKRLEWVASISTTSNTYYPDSVKGRFTTSRDNAKNSVYLQMSSLRAEDTAVYYCGRGVITNQAWFAYWGQGTTVTVSS
VL: DIVLTQSPATLSVSPGERATLSCRASQSISNNLHWYQQKPGQAPRLLIKYASQSISGIPARFSGSGSGTDFTLTISSLQSEDFAVYFCQQSNSWPLTFGGGTKVEIKR
notes: as for B1
With B7, in the experiment with Aβ1-42 polypeptide [7], binding was characterised by a dissociation constant (Kd) of 22.5 nM, the koff amounted to 0.000433 s⁻¹ and the kon amounted to 19200 M⁻¹ s⁻¹. Moreover, in the experiment with Aβ1-42 polypeptide [8], the “relative fluorescence intensity” value is 0.62 relative to hIgG and the “relative value of LDH release” value was 1.41 relative to hIgG.

B8: 066-4.26.14H4L2 (antibody, human IgG1, V domains shown)
VH: EVQLVESGGGLVQPGGSLRLSCAASGFTFRSYAMSWVRQAPGKGLEWVASISTTSNTYYPDSVKGRFTTSRDNAKNSVYLQMSSLRDEDTAMYYCGRGVITNQAWFAYWGQGILVTVSS
VL: DIVLTQSPATLSVSPGERATLSCRASQSISNNLHWYQQKPGQAPRLLIKYASQSISGIPARFSGSGSGTDFTLTISSLQSEDFAVYFCQQSNSWPLTFGGGTKVEIKR
notes: as for B1
In the experiment with Aβ1-42 polypeptide [7], B8 gave a Kd of 36.3 nM, a koff of 0.000463 s⁻¹ and a kon of 12800 M⁻¹ s⁻¹. In addition, in the experiment with Aβ1-42 polypeptide [8], the “relative fluorescence intensity” value was 0.7 relative to hIgG and the “relative value of LDH release” value is 1.3 relative to hIgG.

B9: 066-4.26.14H2L3 (antibody, human IgG1, V domains shown)
VH: EVQLVESGGGLVKPGGSLRLSCAASGFTFRSYAMSWVRQTPEKRLEWVASISTTSNTYYPDSVKGRFTTSRDNAKNSVYLQMSSLRAEDTAVYYCGRGVITNQAWFAYWGQGTTVTVSS
VL: DIVLTQSPDFQSVTPKEKVTISCRASQSISNNLHWYQQKPDQSPKLLIKYASQSISGIPSRFSGSGSGTDFTLTINSLEAEDAAAYFCQQSNSWPLTFGPGTKVEIKR
notes: as for B1
With B9, in the experiment with Aβ1-42 polypeptide [7], the Kd came out at 25.8 nM, the koff came out at 0.000472 s⁻¹ and the kon came out at 18300 M⁻¹ s⁻¹. In the experiment with Aβ1-42 polypeptide [8], the “relative fluorescence intensity” value is 0.67 relative to hIgG and the “relative value of LDH release” value is 1.42 relative to hIgG.

B10: 066-4.26.14H5L3 (antibody, human IgG1, V domains shown)
VH: EVQLVESGGGLVQPGGSLRLSCVASGFTFRSYAMSWVRQAPGKGLEWVASISTTSNTYYPDSVKGRFTTSRDNSKNTVYLQMSSLRAEDTAVYYCGRGVITNQAWFAYWGQGTLVTVSS
VL: DIVLTQSPDFQSVTPKEKVTISCRASQSISNNLHWYQQKPDQSPKLLIKYASQSISGIPSRFSGSGSGTDFTLTINSLEAEDAAAYFCQQSNSWPLTFGPGTKVEIKR
notes: as for B1
Consider B10, for which, in the experiment with Aβ1-42 polypeptide [7], the affinity, expressed as Kd, was 32.5 nM; the koff is 0.00046 s⁻¹; the association rate constant (kon) worked out at 14200 M⁻¹ s⁻¹. Moreover, in the experiment with Aβ1-42 polypeptide [8], the “relative fluorescence intensity” value was 0.78 relative to hIgG and the “relative value of LDH release” value was 1.41 relative to hIgG.

B11: 066-4.26.14H5L2 (antibody, human IgG1, V domains shown)
VH: EVQLVESGGGLVQPGGSLRLSCVASGFTFRSYAMSWVRQAPGKGLEWVASISTTSNTYYPDSVKGRFTTSRDNSKNTVYLQMSSLRAEDTAVYYCGRGVITNQAWFAYWGQGTLVTVSS
VL: DIVLTQSPATLSVSPGERATLSCRASQSISNNLHWYQQKPGQAPRLLIKYASQSISGIPARFSGSGSGTDFTLTISSLQSEDFAVYFCQQSNSWPLTFGGGTKVEIKR
notes: as for B1
In the case of B11, in the experiment with Aβ1-42 polypeptide [7], the Kd was 20.8 nM, the koff amounted to 0.000278 s⁻¹ and the kon was 13400 M⁻¹ s⁻¹. Besides, in the experiment with Aβ1-42 polypeptide [8], the “relative fluorescence intensity” value is 0.67 relative to hIgG and the “relative value of LDH release” value was 1.26 relative to hIgG.

B12: 066-4.26.14H4L4 (antibody, human IgG1, V domains shown)
VH: EVQLVESGGGLVQPGGSLRLSCAASGFTFRSYAMSWVRQAPGKGLEWVASISTTSNTYYPDSVKGRFTTSRDNAKNSVYLQMSSLRDEDTAMYYCGRGVITNQAWFAYWGQGILVTVSS
VL: EIVLTQSPGTLSLSPGERATLSCRASQSISNNLHWYQQKPGQAPRLLIKYASQSISGIPDRFSGSGSGTDFTLTISRLEPEDFAVYYCQQSNSWPLTFGGGTKVEIKR
notes: as for B1
In the case of B12, in the experiment with Aβ1-42 polypeptide [9], the binding result is listed as “no binding”.
